Data reported in patent US11351270B2, “Junctophilin-2 fragments and uses therefor” (University of Iowa Research Foundation, priority 2016, dated 2022).

Experiments:
[1] = system: cultured adult murine cardiomyocytes; assay: Affymetrix Genechip analysis of cultured cardiomyocytes; type: cell-based, mouse; conditions: vs Ad-Empty control
Protocol: Genecarrior-1 (Epoch Lab) was used to transfect plasmids into HEK293T cells. Isolation and culture of cardiomyocytes were performed as described previously (Guo et al., 2015). Adenoviruses were applied at a multiplicity of infection (MOI) of about 100, which results in transfection of almost all cells as confirmed by immunostaining of eptiope tags.
Microarray assay was performed by Affymetrix GeneChip® Mouse Genome 430 2.0 according to the standard procedure of cRNA preparation and Genechip hybridization. The R package limma (version 3.22.7) (Ritchie et al., 2015) was used for processing microarray data and identifying differentially expressed genes (the cutoff of significance was p value<0.01). David (Huang et al., 2009) was used for gene enrichment (GO) analysis. Ingenuity pathway analysis (IPA, Qiagen) was used for pathway analysis.

[2] = system: JP2-KD cardiomyocytes; assay: Confocal Ca2+ imaging in JP2-KD cardiomyocytes after adenoviral expression; type: cell-based, mouse
Source text: Specifically, conditional shJP2 mice (provided by Dr. Wehrens) (van Oort et al., 2011) were crossed with mice carrying the cardiac-specific α-myosin heavy chain promoter upstream of Cre (% MHC-Cre, also FVB-Tg(Myh6-cre)2182Mds/J, The Jackson Laboratory). The shJP2 mice were maintained on a C57BL/6 background for more than 10 generations. The αMHC-Cre mice were maintained on an FVB background. PCR was used to genotype the offspring. The near complete depletion of JP2 protein in JP2-KD (αMHC-Cre X shJP2) hearts has been reported recently (Chen et al., 2013). JP2-KD mice were sacrificed at 2 months of age for isolation and culture of ventricular cardiomyocytes as described below.
(§1) Genecarrior-1 (Epoch Lab) was used to transfect plasmids into HEK293T cells. Isolation and culture of cardiomyocytes were performed as described previously (Guo et al., 2012). […] Ca^2+ Imaging experiments were performed 40 hours after adenoviral infection.
(§2) Cells were loaded with Rhod-2AM at 37° C. for 20 minutes, followed by washing with Tyrode's solution at room temperature for 15 minutes before Ca^2+ imaging. Confocal images were acquired using a ×63, 1.3 numerical aperture oil immersion objective mounted on a Zeiss LSM 510 confocal microscope. Confocal line scanning was used to record Ca^2+ signals. Steady-state Ca^2+ transients were recorded in Tyrode's solution containing 1.8 mM Ca^2+ under field stimulation of 1 Hz. At least five steady-state transients for each cell were analyzed and averaged to represent Ca^2+ signals of the cell. Ca^2+ imaging data were analyzed by using a home-complied software, CaTeasy, which is coded in MATLAB 2013a (Mathworks). Briefly, the program normalizes Ca^2+ transient images on a column-by-column basis (512 columns/image). The characteristic parameters of normalized transients were detected automatically. The firing time of every scanning pixel was detected column by column on the basis of the maximum local variability of pixel intensity. The profile of the point-to-point firing time was indicated by a red line overlapping on the Ca^2+ image. Index of desynchronization, defined by the mean absolute deviation of firing time of each scanning pixel (with every 8 pixels binned), was used to evaluate the dyssynchrony of Ca^2+ transients. This automated software for calcium transient analysis is available upon request.

[3] = system: WT cardiomyocytes; assay: Confocal Ca2+ imaging in WT cardiomyocytes after adenoviral expression; type: cell-based, mouse; conditions: 1-Hz field stimulation; overexpression in WT cardiomyocytes
Protocol: as §1
as §2, with “Index of desynchronization, defined by the mean absolute deviation of firing time of each scanning pixel (with every 8 pixels binned), was used to evaluate the dyssynchrony of Ca^2+ transients. This automated software for calcium transient analysis is available upon request.” left out

[4] = system: RyR2 and Cav1.2; assay: Coimmunoprecipitation with E-C coupling channels; type: binding, mouse; conditions: anti-HA immunoprecipitation
Source text: FIGS. 5A-H. JP2 truncations are nonfunctional in regulating Ca^2+ transients. A) An antibody against the HA tag was used to reveal the localization of adenoviral expression of tagged full-length JP2 and truncations, as indicated, in adult wild-type cardiomyocytes. All the three version of JP2 can be localized in the striated pattern. B) Full-length JP2 and JP2(1-565) forms complexes with RyR2 and Cav1.2 In vivo. An antibody against HA was used for immunoprecipitation […]. The RyR2 and Cav1.2 that were pulled down were detected by Western blot analysis. […] IB, immunoblot. C) Adenovirus-mediated expression of full-length JP2, FLAG-JP2(1-565)-HA, and JP2(566-end)-HA in JP2-KD) cardiomyocytes. D) Representative steady-state Ca^2+ transients under 1-Hz field stimulation. The fluorescence intensity (F) of Ca^2+ imaging was normalized to the baseline (FO). The red lines overlapping on Ca^2+ imaging show the profile of the moment of Ca^2+ transient firing on the scanning line in a point-by-point way. A straighter line means better synchronization of the Ca^2+ transients. Note that expression of full-length JP2, but not JP2 truncations, improves the amplitude and synchronization of Ca^2+ transients. E-G) Summary of Ca^2+ transient amplitude, index of desynchronization (mean absolute deviation of firing time), and duration of 50% decay (T5) (n=68, 70, 70, and 52 for Ad-Empty, Ad-JP2, […], and Ad-JP2(566-end), respectively). Only full-length JP2 Improves the amplitude, synchronization, and decay of Ca^2+ transients. H) Summary of SR Ca^2+ content, which was assessed by caffeine-induced SR Ca^2+ release (n=17, 17, 17, and 12 for Ad-Empty, Ad-JP2, Ad-JP2(1-565), and Ad-JP2(566-end), respectively). **, p<0.01 versus indicated groups; N.S., not significant.
Cleavage at the primary calpain proteolysis site (Arg-565/Thr-566) splits apart the C-terminal SR-binding TM domain and N-terminal plasma membrane-binding MORN domains of JP2. […]

B1: full-length JP2: full-length junctophilin-2, FLAG/HA tagged, expressed by adenovirus (protein, UniProt Q9BR39 1-696, looked up)
chain: MSGGRFDFDDGGAYCGGWEGGKAHGHGLCTGPKGQGEYSGSWNFGFEVAGVYTWPSGNTFEGYWSQGKRHGLGIETKGRWLYKGEWTHGFKGRYGIRQSSSSGAKYEGTWNNGLQDGYGTETYADGGTYQGQFTNGMRHGYGVRQSVPYGMAVVVRSPLRTSLSSLRSEHSNGTVAPDSPASPASDGPALPSPAIPRGGFALSLLANAEAAARAPKGGGLFQRGALLGKLRRAESRTSVGSQRSRVSFLKSDLSSGASDAASTASLGEAAEGADEAAPFEADIDATTTETYMGEWKNDKRSGFGVSERSSGLRYEGEWLDNLRHGYGCTTLPDGHREEGKYRHNVLVKDTKRRMLQLKSNKVRQKVEHSVEGAQRAAAIARQKAEIAASRTSHAKAKAEAAEQAALAANQESNIARTLARELAPDFYQPGPEYQKRRLLQEILENSESLLEPPDRGAGAAGLPQPPRESPQLHERETPRPEGGSPSPAGTPPQPKRPRPGVSKDGLLSPGAWNGEPSGEGSRSVTPSEGAGRRSPARPATERMAIEALQAPPAPSREPEVALYQGYHSYAVRTTPPEPPPFEDQPEPEVSGSESAPSSPATAPLQAPTLRGPEPARETPAKLEPKPIIPKAEPRAKARKTEARGLTKAGAKKKARKEAALAAEAEVEVEEVPNTILICMVILLNIGLAILFVHLLT
modifications: full-length FLAG/HA tags; adenoviral expression
notes: full-length junctophilin-2, FLAG/HA tagged, expressed by adenovirus
significantly induced known genes (p<0.01) [1]: 96 genes
significantly repressed known genes (p<0.01) [1]: 264 genes
decay phase (T50) of Ca2+ transients ([2]; 1-Hz field stimulation): shortened decay phase
synchronization of Ca2+ transients (index of desynchronization) ([2]; 1-Hz field stimulation): increased synchronization
increase of Ca2+ transient amplitude ([2]; 1-Hz field stimulation, adenoviral expression): 50%
SR Ca2+ content ([2]; caffeine-induced SR Ca2+ release): not influenced
kinetics of steady-state Ca2+ transients and SR Ca2+ loading [3]: did not alter
interaction with RyR2 and Cav1.2 [4]: interact
